Laboratory results taken from patent publication US20120231006A1 (Amgen, published 2012).

B1: mAb 2D2.1 (antibody, human IgG2, lambda, V domains shown)
VH: QVQLQQWGAGLLKPSETLSLTCAVYGGSFSGYYWSWIRQPPGKGLEWIGEIDHSGRINYNPALKSRLTISVDTSKNQFSLKLSSVTAADTAVYYCARAGSGGYEDWFDPWGQGTLVTVSS
VL: QSVLTQPPSVSGAPGQRVTISCTGSSSNIGAGYNVHWYQQFPRTDPKLLIYVYNIRPSGVPDRFSGSRSGTSASLAITGLQTEDEADYYCQSYDSSLSGVVFGGGTKLTVLG
notes: fully human IgG2 lambda, Campaign 1; also called mAb 2D.1
B2: mAb 2C1.1 (antibody, human IgG2, lambda, V domains shown)
VH: QVQLQQWGAGLLKPSETLSLTCAVYGGSFSGYYWSWIRQPPGKGLEWIGEIDHSGSTNYNPALKSRLTISVDTSKNQFSLKLSSVTAADTAVYYCARAGSGGYEDWFDPWGQGTLVTVSS
VL: QSVLTQPPSVSGAPGQRVTISCTGSSSNIGAGYNVHWYQQFPRTDPKLLIYVYNIRPSGVPDRFSGSRSGTSASLAITGLQTEDEADYYCQSYDSSLSGVVFGGGTKLTVLG
notes: fully human IgG2 lambda, Campaign 1; tested hybridoma-purified and recombinant; also called anti-hOrai1 mAb 2C1.1
B3: mAb 5F7.1 (antibody, human IgG2, lambda)
heavy: QVQLVQSGAEVKKPGASVKVPCKASGYTFTDYYINWVRQAPGQGLEWMGWINPNNGGTNYAQKFQGRVTMTRDTSISTAYMELRRLRSDDTAVYYCARERGGYEDWFDPWGQGTLVTVSSASTKGPSVFPLAPCSRSTSESTAALGCLVKDYFPEPVTVSWNSGALTSGVHTFPAVLQSSGLYSLSSVVTVPSSNFGTQTYTCNVDHKPSNTKVDKTVERKCCVECPPCPAPPVAGPSVFLFPPKPKDTLMISRTPEVTCVVVDVSHEDPEVQFNWYVDGVEVHNAKTKPREEQFNSTFRVVSVLTVVHQDWLNGKEYKCKVSNKGLPAPIEKTISKTKGQPREPQVYTLPPSREEMTKNQVSLTCLVKGFYPSDIAVEWESNGQPENNYKTTPPMLDSDGSFFLYSKLTVDKSRWQQGNVFSCSVMHEALHNHYTQKSLSLSPGK
light: QSVLTQPPSVSGAPGQRVTISCTGSSSNIGAGFDVHWYQQLPVTAPKLLIYGNRNRPSGVPARFSGSKSGTSASLAITGLQAEDEAVYYCQSYDSSLTVFGGGTKLTVLGQPKANPTVTLFPPSSEELQANKATLVCLISDFYPGAVTVAWKADGSPVKAGVETTKPSKQSNNKYAASSYLSLTPEQWKSHRSYSCQVTHEGSTVEKTVAPTECS
notes: fully human IgG2 lambda, Campaign 2
B4: mAb 2B7.1 (antibody, human IgG2, V domains shown)
VH: QVQLQQWGAGLLKPSETLSLTCAVYGGSFSGYYWSWIRQPPGKGLEWIGEIDHSGSTNYNPALKSRLTISVDTSKNQFSLKLSSVTAADTAVYYCARAGSGGYEDWFDPWGQGTLVTVSS
VL: QSVLTQPPSVSGAPGQRVTISCTGSSSNIGTGYNVHWYQQFPRTDPKLLIYVYNIRPSGVPDRFSGSRSGTSASLAITGLQTEDEADYYCQSYDSSLSGVVFGGGTKLTVLG
notes: fully human, Campaign 1
B5: mAb 2B4.1 (antibody, human IgG2, lambda, V domains shown)
VH: QVQLVQSGAEVKKPGASVKVSCKASGYTFTDYYMHWVRQAPGQGLEWMGWINPNSGGTNYVQKFQDRVTMTRDTSITTAYMELTRLRSDDTAVYYCAREEGDYGMDVWGQGTTVTVSS
VL: QSVLTQPPSVSGAPGQRVTISCTGSNSNIGTGYDVHWYQKLPGTAPRLLIYSHFNRPSGVPDRFSGSTSGTSASLAITGLQAEDEADYYCQSYDSSLSGSVFGGGTKLTVLG
B6: mAb 5A4.2 (antibody, human IgG2, lambda, V domains shown)
VH: QVQLVQSGAEVKKPGASVKVSCKASGYTFTDYYMNWVRQAPGQGLEWMGWINPNSGGTKYAQKFQGRVTMTRDTSIRTAYMELSRLRSDDTAVYYCSREYGGNSDWFDPWGQGTLVTVSS
VL: QSVLTQPPSVSGAPGQRVTISCTGSSSNIGAGYDVHWYQQLPGTAPKLLIYGNSNRPSGVPDRFSGSKSGTSASLAITGLQAEDEADYYCQSYDNRLSDSVVIGGGTKLTVQG
notes: as for B3
B7: mAb 5B1.1 (antibody, human IgG2, lambda, V domains shown)
VH: QVQLVQSGAEVKKPGASVKVSCKASGYTFTDYYINWVRQAPGQGLEWMGWINPNSGGSSYAQKFQGRVTMTRDTSISTAHMELIRLRSDDTAVYYCARERGGIEDWFDPWGQGTLVTVSS
VL: QSVLTQPPSVSGAPGQRVTISCTGSSSNIGAGYDVHWYQQLPGTAPKLLIYGNSNRPSGVPDRFSGSKSGTSASLAITKFQAEDEAVYYCQSYGSGLSGVVFGGGTKLTVLG
notes: fully human IgG2 lambda, Campaign 2; also called mAb 5Bl1.1

How the values were obtained:
[1] = molecular target: T1, hOrai1-mOrai1 ECL2 chimeric protein (human/mouse chimera, UniProt Q96D31 1-301); assay: FACS, 293EBNA transfectants
T1 construct: human Orai1 with mouse ECL2; also called Ch
Excerpt: FIG. 15A-B illustrates the results of FACS analysis showing binding to human Orai1 extracellular loop 2-mouse Orai1 mutant expressed on the surface of HEK-293-EBNA cells. HEK-293-EBNA cells were transiently transfected with mouse Orai1 mutant where human Orai1 extracellular loop 2 replaced the mouse Orai1 extracellular loop 2 and human Orai1 mutant where mouse Orai1 extracellular loop 2 replaced human extracellular loop 2. Transfected cells were stained first with recombinant monoclonal antibodies then counter-stained with a secondary phycoerythrin-labeled goat (“Gt”) anti-human (“Hu”) IgG F(ab′)₂ antibody fragment and visualized using FACS.
FACS binding analysis. Transfected 293EBNA cells transiently expressed hOrai1-mOrai1 ECL2 or mOrai1-hOrai1 ECL2 chimera. The transfected cells were harvested at 48 hours post-transfection. Cells transfected with pcDNA3.1 were used as negative controls. Cells were washed once with ice-cold 1×PBS, resuspended in ice-cold FACS buffer (1×D-PBS+2% goat serum), and 2×10⁵ cells in 100 μL were stained per antibody combination. All antibody incubation steps were performed on ice for 1 hour. […] Next, the unlabelled antibody was detected using goat F(ab′)₂ anti-mouse or anti-human IgG-phycoerythrin (IgG-PE), followed by a wash with 200 μL of ice-cold FACS buffer before flow cytometry analysis. Unstained cells and cells stained with detecting antibodies were used as negative controls. The values of relative level of fluorescence were calculated using FCS Express (De Novo Software) and mean values were calculated using log-transformed data (geometric mean). The results of the FACS analysis are shown in FIG. 15A-B, which supports the conclusion that the hOrai1 ECL2 domain is the region of hOrai1 where antibodies of the present invention bind.

[2] = molecular target: T2, mOrai1-hOrai1 ECL2 (SPTKPPAE) protein (human/mouse chimera, UniProt Q8BWG9 1-304 (mouse entry)); assay: flow cytometry on HEK-293 cells transfected with the chimera (loss of binding experiment)
T2 construct: also called Ch

[3] = molecular target: T3, mOrai1-hOrai1 ECL2 (KPPAE) protein (human/mouse chimera, UniProt Q8BWG9 1-304 (mouse entry)); assay: as above
T3 construct: also called Ch

[4] = molecular target: T4, mOrai1-hOrai1 ECL2 (…) protein (human/mouse chimera, UniProt Q8BWG9 1-304 (mouse entry)); assay: as above
T4 construct: also called Ch
T4 sequence (Q8BWG9 other isoform, or with tags, fused parts or gaps): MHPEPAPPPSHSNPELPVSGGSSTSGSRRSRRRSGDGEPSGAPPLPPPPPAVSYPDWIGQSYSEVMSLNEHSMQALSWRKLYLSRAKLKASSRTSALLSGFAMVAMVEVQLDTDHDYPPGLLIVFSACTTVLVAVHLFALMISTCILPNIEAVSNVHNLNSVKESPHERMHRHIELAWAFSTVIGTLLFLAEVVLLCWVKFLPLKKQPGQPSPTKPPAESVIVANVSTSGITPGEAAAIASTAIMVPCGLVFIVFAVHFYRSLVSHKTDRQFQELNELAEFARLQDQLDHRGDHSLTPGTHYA

[5] = molecular target: T5, mOrai1-hOrai1 ECL2 (…) protein (human/mouse chimera, UniProt Q8BWG9 1-304 (mouse entry)); assay: as above; remark: listed apart in the source
T5 construct: also called Ch
T5 sequence (Q8BWG9 other isoform, or with tags, fused parts or gaps): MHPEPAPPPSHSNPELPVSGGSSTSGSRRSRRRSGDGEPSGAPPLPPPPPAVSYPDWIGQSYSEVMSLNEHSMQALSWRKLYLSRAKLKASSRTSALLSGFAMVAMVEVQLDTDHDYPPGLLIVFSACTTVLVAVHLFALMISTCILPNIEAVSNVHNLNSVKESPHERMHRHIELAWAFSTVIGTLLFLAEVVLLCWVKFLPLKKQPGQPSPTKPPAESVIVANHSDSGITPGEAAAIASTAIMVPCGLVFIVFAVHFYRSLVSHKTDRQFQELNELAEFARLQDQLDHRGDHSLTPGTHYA

[6] = molecular target: T6, mOrai1-hOrai1 ECL2 (…) protein (human/mouse chimera, UniProt Q8BWG9 1-304 (mouse entry)); assay: as above; remark: listed apart in the source
T6 construct: also called Ch
T6 sequence (Q8BWG9 other isoform, or with tags, fused parts or gaps): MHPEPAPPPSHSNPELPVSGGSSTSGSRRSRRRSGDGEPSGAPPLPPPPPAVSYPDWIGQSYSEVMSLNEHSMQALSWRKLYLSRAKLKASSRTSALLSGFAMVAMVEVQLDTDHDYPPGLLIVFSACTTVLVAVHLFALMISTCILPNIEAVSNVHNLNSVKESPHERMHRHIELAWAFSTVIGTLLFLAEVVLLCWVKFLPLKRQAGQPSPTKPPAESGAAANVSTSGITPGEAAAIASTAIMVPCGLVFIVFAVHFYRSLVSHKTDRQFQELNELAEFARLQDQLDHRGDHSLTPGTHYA

[7] = molecular target: T7, hOrai1-mOrai1 ECL2 (VST) protein (human/mouse chimera, UniProt Q96D31 1-301); assay: FACS, 293EBNA; parameters: concentration or dose not given beside the values
T7 construct: also called Ch
Excerpt: (§1) FIG. 17A-D illustrates the results of FACS analysis showing binding to the indicated mOrai1-hOrai1 ECL2 chimeric mutants expressed on the surface of HEK-293-EBNA cells. Transfected cells were stained first with recombinant monoclonal antibodies then counter-stained with a secondary phycoerythrin-labeled goat (“Gt”) anti-human (“Hu”) IgG F(ab′)₂ antibody fragment and visualized using FACS.
(§2) Representative results of FACS analysis of binding to the mutant hOrai1-mOrai1 ECL2 chimera described above by exemplary anti-hOrai1 antibodies of the present invention are shown in FIG. 17A-D, Table 10A and Table 10B below. Table 10A (Campaign 1) and Table 10B (Campaign 2) show the gain in binding ability of exemplary monoclonal antibodies to hOrai 1-mOrai 1 ECL2 chimera mutants as determined by FACS.

[8] = molecular target: T8, hOrai1-mOrai1 ECL2 (PASGAA) protein (human/mouse chimera, UniProt Q96D31 1-301); assay: FACS, 293EBNA; parameters: concentration or dose not given beside the values
T8 construct: also called Ch
Excerpt: as §1, §2

[9] = molecular target: T9, hOrai1-mOrai1 ECL2 (…) protein (human/mouse chimera, UniProt Q96D31 1-301); assay: FACS, 293EBNA; parameters: concentration or dose not given beside the values
T9 construct: also called Ch
Excerpt: as §1, §2

[10] = molecular target: T10, hOrai1-mOrai1 ECL2 (AANVST) protein (human/mouse chimera, UniProt Q96D31 1-301); assay: FACS, 293EBNA; parameters: concentration or dose not given beside the values
T10 construct: also called Ch
Excerpt: as §1, §2

[11] = molecular target: T11, hOrai1-mOrai1 ECL2 (GAA) protein (human/mouse chimera, UniProt Q96D31 1-301); assay: FACS, 293EBNA; parameters: concentration or dose not given beside the values
T11 construct: also called Ch
Excerpt: as §1, §2

[12] = molecular target: T1, hOrai1-mOrai1 ECL2 chimeric protein; assay: FACS, 293EBNA; parameters: concentration or dose not given beside the values
Excerpt: as §1, §2

[13] = molecular target: T12, mOrai1-hOrai1 ECL2 (AESVIV) protein (human/mouse chimera, UniProt Q8BWG9 1-304 (mouse entry)); assay: flow cytometry on HEK-293 cells transfected with the chimera (loss of binding experiment)
T12 construct: also called Ch

[14] = molecular target: T13, mOrai1-hOrai1 ECL2 (…) protein (human/mouse chimera, UniProt Q8BWG9 1-304 (mouse entry)); assay: as above; remark: listed apart in the source
T13 construct: also called Ch
T13 sequence (Q8BWG9 other isoform, or with tags, fused parts or gaps): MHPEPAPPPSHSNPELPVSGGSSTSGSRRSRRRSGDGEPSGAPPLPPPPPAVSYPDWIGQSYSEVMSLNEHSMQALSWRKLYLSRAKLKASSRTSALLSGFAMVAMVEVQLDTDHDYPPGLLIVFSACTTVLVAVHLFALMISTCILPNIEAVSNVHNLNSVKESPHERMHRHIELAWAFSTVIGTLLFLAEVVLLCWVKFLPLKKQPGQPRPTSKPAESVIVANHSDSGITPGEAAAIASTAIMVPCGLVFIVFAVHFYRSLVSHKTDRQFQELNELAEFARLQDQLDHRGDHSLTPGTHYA

T9 sequence (Q96D31 other isoform, or with tags, fused parts or gaps): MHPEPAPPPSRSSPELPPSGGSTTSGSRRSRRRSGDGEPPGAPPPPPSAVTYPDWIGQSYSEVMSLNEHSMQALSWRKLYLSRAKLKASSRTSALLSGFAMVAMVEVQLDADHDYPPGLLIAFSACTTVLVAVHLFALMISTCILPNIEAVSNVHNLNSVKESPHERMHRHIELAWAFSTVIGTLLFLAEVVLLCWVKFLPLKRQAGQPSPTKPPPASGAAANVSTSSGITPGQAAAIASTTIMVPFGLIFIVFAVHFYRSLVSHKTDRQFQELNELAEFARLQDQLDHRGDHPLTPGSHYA
T7 sequence (Q96D31 other isoform, or with tags, fused parts or gaps): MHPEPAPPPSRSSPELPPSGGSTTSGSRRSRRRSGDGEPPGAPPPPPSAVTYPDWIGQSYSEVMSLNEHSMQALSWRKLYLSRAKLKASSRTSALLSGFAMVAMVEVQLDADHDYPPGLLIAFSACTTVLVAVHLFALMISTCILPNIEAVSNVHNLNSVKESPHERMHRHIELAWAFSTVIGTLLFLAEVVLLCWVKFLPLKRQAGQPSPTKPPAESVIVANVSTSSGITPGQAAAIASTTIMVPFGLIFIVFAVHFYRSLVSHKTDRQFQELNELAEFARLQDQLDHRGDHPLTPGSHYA
T10 sequence (Q96D31 other isoform, or with tags, fused parts or gaps): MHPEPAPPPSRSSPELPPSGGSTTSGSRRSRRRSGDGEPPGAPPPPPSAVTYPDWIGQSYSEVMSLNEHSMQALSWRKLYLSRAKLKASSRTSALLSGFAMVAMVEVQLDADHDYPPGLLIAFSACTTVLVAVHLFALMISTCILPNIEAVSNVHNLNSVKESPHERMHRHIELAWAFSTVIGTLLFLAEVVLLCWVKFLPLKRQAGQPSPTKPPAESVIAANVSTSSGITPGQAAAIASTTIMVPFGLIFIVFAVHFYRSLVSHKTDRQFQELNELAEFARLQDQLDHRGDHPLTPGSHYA
T1 sequence (Q96D31 other isoform, or with tags, fused parts or gaps mutant): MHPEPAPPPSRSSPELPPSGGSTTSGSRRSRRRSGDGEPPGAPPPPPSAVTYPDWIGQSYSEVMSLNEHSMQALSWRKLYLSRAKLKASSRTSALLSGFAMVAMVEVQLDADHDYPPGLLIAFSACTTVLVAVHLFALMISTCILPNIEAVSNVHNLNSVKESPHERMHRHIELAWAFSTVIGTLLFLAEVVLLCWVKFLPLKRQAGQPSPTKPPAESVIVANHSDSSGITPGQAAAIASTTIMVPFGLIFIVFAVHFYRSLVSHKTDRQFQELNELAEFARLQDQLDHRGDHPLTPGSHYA
T12 sequence (Q8BWG9 other isoform, or with tags, fused parts or gaps): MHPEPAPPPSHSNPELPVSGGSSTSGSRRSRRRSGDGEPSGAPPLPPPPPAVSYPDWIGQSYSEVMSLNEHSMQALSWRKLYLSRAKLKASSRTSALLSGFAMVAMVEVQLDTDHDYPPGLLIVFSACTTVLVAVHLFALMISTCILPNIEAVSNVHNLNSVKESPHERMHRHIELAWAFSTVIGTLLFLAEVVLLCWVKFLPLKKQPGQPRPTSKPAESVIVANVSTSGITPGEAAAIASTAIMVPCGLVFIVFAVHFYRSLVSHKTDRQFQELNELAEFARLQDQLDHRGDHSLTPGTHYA
T8 sequence (Q96D31 other isoform, or with tags, fused parts or gaps): as the sequence (Q96D31 other isoform, or with tags, fused parts or gaps mutant) above, with A216P, E217A, V219G, I220A, V221A counted along it
T2 sequence (Q8BWG9 other isoform, or with tags, fused parts or gaps): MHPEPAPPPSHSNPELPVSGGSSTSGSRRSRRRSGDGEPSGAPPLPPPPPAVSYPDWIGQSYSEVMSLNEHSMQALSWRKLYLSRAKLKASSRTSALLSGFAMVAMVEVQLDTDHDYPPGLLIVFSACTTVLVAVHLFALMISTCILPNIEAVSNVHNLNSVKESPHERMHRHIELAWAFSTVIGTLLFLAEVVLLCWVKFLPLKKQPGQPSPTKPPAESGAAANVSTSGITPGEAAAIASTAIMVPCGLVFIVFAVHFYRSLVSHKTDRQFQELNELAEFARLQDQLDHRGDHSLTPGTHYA
T11 sequence (Q96D31 other isoform, or with tags, fused parts or gaps): as the sequence (Q96D31 other isoform, or with tags, fused parts or gaps mutant) above, with V219G, I220A, V221A counted along it
T3 sequence (Q8BWG9 other isoform, or with tags, fused parts or gaps): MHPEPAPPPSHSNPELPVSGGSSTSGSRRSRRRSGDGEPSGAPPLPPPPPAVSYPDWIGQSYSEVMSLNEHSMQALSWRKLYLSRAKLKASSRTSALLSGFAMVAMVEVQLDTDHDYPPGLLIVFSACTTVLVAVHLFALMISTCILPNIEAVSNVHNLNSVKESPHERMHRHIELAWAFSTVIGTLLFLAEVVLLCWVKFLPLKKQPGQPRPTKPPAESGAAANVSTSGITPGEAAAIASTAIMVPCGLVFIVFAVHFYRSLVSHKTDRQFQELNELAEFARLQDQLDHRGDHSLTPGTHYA

Row | Binder | binding result [1] | binding result [2] | binding result [3] | binding result [4] | binding result [5] | binding result [6] | percent of control (POC) of FACS Geo Mean [7] | percent of control (POC) of FACS Geo Mean [8] | percent of control (POC) of FACS Geo Mean [9] | percent of control (POC) of FACS Geo Mean [10] | percent of control (POC) of FACS Geo Mean [11] | percent of control (POC) of FACS Geo Mean [12] | binding result [13] | binding result [14]
1 | B1 | no binding (tested: 1 µg) | no binding | no binding | no binding | no binding | no binding | < 1% | < 1% | < 1% | < 1% | < 1% | < 1% |  | 
2 | B2 | no binding (tested: 1 µg) | no binding | no binding | no binding | no binding | no binding |  |  |  |  |  |  |  | 
3 | B3 | no binding (tested: 1 µg) | no binding | no binding | no binding | no binding | no binding | < 1% | < 1% | < 1% | < 1% | < 1% | < 1% | no binding | no binding
4 | B4 | no binding (tested: 1 µg) | no binding | no binding | no binding | no binding | no binding |  |  |  |  |  |  |  | 
5 | B5 | no binding (tested: 1 µg) | no binding | no binding | no binding | no binding | no binding |  |  |  |  |  |  | no binding | no binding
6 | B6 | no binding (tested: 1 µg) | no binding | no binding | no binding | no binding | no binding | < 1% | < 1% | < 1% | < 1% | < 1% | < 1% | no binding | no binding
7 | B7 | no binding (tested: 1 µg) | no binding | no binding | no binding | no binding | no binding | < 1% | < 1% | < 1% | < 1% | < 1% | < 1% |  | 
